Where no end group is shown, it is not given here.
Legend:
[1] = molecular target: T1, human mini-Sirt1 (aa 183-505-(GGGS)2-641-665) (Homo sapiens, UniProt Q96EB6); experiment: FdL assay, mini-Sirt1; format: biochemical; details: FdL-1 at substrate Km, 15% (v/v) DMSO, n = 3
T1 construct: aa 183-505-(GGGS)2-641-665; made in house; host or cells: E. coli CodonPlus(DE3)
T1 sequence (Q96EB6 with tags, fused parts or gaps limits assumed): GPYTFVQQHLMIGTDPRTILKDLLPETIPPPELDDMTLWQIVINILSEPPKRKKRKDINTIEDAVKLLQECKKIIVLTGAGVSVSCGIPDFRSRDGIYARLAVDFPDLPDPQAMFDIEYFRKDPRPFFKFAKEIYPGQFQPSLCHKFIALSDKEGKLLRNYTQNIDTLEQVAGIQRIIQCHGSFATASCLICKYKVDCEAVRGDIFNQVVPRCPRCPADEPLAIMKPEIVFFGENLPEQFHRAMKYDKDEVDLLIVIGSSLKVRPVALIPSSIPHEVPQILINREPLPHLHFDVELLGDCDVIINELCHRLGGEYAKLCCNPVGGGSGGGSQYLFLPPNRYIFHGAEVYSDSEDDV
Excerpt: (§1) A human mini-Sirt1 construct (aa 183-505-(GGGS)2-641-665), as described in [27], was generated in a modified pET-19b with a TEV cleavage site. This construct and human full-length Sirt1 (fl-Sirt1) in pET-15b, Sirt1-(183-664) and Sirt1-(214-664) in pET-15b, mini-Sirt1-∆SBD (aa 214-505-(GGGS)2-641-665) and mini-Sirt1-∆ESA (aa 183–505) in a modified pET-19b with TEV cleavage site, Sirt2-(43-356) in a modified pET-19b with a His6-Sumo tag, Sirt3-(93-399) in a modified pET-32a with Trx-His6 tag and TEV cleavage site, hSirt3-(118-399) in pVFT3S (Sungkyunkwan University, Seoul, Republic of Korea) with His6-Trx tag and TEV cleavage site, Sirt5-(34-302) in pET-151/D-TOPO, and Sirt6-(1-355) in pQE80L.1 were purified as described. Shortly, proteins were expressed at 20 °C (mini-Sirt1 constructs at 16 °C) in E. coli CodonPlus(DE3), cell lysates were cleared by centrifugation, and proteins were purified via affinity chromatography using a nickel NTA column. After digestion with thrombin or TEV protease, proteins were re-run over the nickel NTA column, pooled, and concentrated. The samples were, then, subjected either directly to size exclusion chromatography in 50 mM Tris/HCl, pH 8.0, 150 mM NaCl, 1 mM TCEP, or to an ion exchange chromatography followed by size exclusion chromatography. Purified proteins (yield 1—4 mg/L expression culture) were concentrated to 12–18 mg/mL and shock frozen for storage at −80 °C.
(§2) For sirtuin deacetylation activity measurements, we used two well-characterized assays, a coupled enzymatic assay, and the so-called FdL assay, respectively.
Km values for FdL-1 were determined in the presence of 3 mM NAD^+ and Km values for NAD^+ in presence of 0.5 mM FdL-1 peptide. […] Reactions were incubated for 20 min, followed by a 1:1 addition of developer (2 mM NAM and 10 mg/mL trypsin in assay buffer). After incubation for 45 min at room temperature, fluorescence was measured with a FluoDia T70 (Photon Technology International Inc., Birmingham, NJ, USA) with an excitation wavelength of 365 nm and emission wavelength of 465 nm. […]

[2] = molecular target: T2, human full-length Sirt1 (fl-Sirt1) (Homo sapiens, UniProt Q96EB6); experiment: Continuous coupled enzymatic sirtuin activity assay, fl-Sirt1; format: biochemical; details: coupled-enzyme assay, n = 2
T2 construct: human full-length Sirt1 (fl-Sirt1) in pET-15b; made in house; host or cells: E. coli CodonPlus(DE3)
T2 sequence (Q96EB6 1-747): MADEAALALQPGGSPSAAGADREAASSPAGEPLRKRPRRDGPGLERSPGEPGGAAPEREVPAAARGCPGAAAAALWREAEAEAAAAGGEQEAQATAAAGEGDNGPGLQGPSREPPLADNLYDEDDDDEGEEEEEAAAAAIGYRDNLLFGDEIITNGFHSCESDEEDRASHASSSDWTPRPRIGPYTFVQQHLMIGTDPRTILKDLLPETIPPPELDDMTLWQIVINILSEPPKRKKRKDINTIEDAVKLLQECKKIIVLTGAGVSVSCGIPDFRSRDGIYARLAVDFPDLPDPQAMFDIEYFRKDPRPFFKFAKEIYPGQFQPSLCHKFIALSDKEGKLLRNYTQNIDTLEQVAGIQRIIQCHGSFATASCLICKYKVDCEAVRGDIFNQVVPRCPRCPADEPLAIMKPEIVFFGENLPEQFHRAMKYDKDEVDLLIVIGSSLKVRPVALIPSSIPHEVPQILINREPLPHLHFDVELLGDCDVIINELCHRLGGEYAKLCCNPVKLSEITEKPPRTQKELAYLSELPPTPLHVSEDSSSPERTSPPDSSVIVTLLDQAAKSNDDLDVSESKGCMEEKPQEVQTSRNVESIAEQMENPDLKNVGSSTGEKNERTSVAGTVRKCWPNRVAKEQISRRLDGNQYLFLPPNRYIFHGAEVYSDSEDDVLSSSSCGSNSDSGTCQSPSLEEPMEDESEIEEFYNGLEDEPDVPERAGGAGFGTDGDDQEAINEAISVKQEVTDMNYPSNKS
Excerpt: A human mini-Sirt1 construct (aa 183-505-(GGGS)2-641-665), as described in [27], was generated in a modified pET-19b with a TEV cleavage site. This construct and human full-length Sirt1 (fl-Sirt1) in pET-15b, Sirt1-(183-664) and Sirt1-(214-664) in pET-15b, mini-Sirt1-∆SBD (aa 214-505-(GGGS)2-641-665) and mini-Sirt1-∆ESA (aa 183–505) in a modified pET-19b with TEV cleavage site, Sirt2-(43-356) in a modified pET-19b with a His6-Sumo tag, Sirt3-(93-399) in a modified pET-32a with Trx-His6 tag and TEV cleavage site, hSirt3-(118-399) in pVFT3S (Sungkyunkwan University, Seoul, Republic of Korea) with His6-Trx tag and TEV cleavage site, Sirt5-(34-302) in pET-151/D-TOPO, and Sirt6-(1-355) in pQE80L.1 were purified as described. […]
Continuous coupled enzymatic sirtuin activity assays were conducted as described. […] Reactions were monitored for 1 h at room temperature by absorption spectroscopy at 340 nm in a UV/vis plate reader (BioTek). The slope for the linear range (typically 5–25 min) was evaluated after background correction with measurements without NAD^+. Additional control reactions were run by either omitting enzyme or omitting peptide substrate to ensure that the signal measured reflects the NAD+-dependent deacetylation activity of the sirtuin.

mini-Sirt1 = molecular target: T3, mini-Sirt1 (Homo sapiens, UniProt Q96EB6); experiment: Deacetylation of ac-Tat-46–54 as substrate by mini-Sirt1; format: biochemical
T3 construct: aa 183-505-(GGGS)2-641-665; made in house; host or cells: E. coli CodonPlus(DE3)
T3 sequence (Q96EB6 with tags, fused parts or gaps limits assumed): T1 sequence (Q96EB6 with tags, fused parts or gaps limits assumed)
Protocol: as §2
Continuous coupled enzymatic sirtuin activity assays were conducted as described. […] For assays with Tat peptides, 5% (v/v) DMSO was added to all reactions to enhance peptide solubility. Reactions were monitored for 1 h at room temperature by absorption spectroscopy at 340 nm in a UV/vis plate reader (BioTek). The slope for the linear range (typically 5–25 min) was evaluated after background correction with measurements without NAD^+. Additional control reactions were run by either omitting enzyme or omitting peptide substrate to ensure that the signal measured reflects the NAD+-dependent deacetylation activity of the sirtuin.

human Sirt3-(118-399) = experiment: Crystal structure of Sirt3/Tat peptide complexes; format: binding; details: Sirt3/Tat-37–59 at 1.95 Å; Sirt3/ac-Tat-46–54 at 1.65 Å
Protocol: For crystallization of the Sirt3 and Tat peptide complexes, 10 mg/mL human Sirt3-(118-399) in 20 mM Tris/HCl, pH 8.0, 150 mM NaCl, 5% (v/v) glycerol, 1 mM TCEP were incubated with 2 mM ac-Tat-46-54 or Tat-37-59 (the latter in 10% (v/v) DMSO) for 60 min at 20 °C. Both complexes were crystallized using the sitting-drop vapor-diffusion method at 20 °C with 100 mM MES, pH 6.0, 30% (w/v) PEG 200, 5% (w/v) PEG 3000 as reservoir solution for Sirt3/ac-Tat-46-54 and 100 mM CHES, pH 9.0, 20% (w/v) PEG 8000 for Sirt3/Tat-37-59. Crystals were cryoprotected with the respective reservoir solution supplemented with 25% (v/v) glycerol and flash-frozen in liquid nitrogen.
Diffraction data were collected at BESSY II, beamline MX14.1 operated by Helmholtz Zentrum Berlin (Berlin, Germany) at 0.9184 Å wavelength. Indexing, scaling, and merging of the Sirt3/ac-Tat-46-54 complex data were performed with XDSAPP [37]. The Sirt3/Tat-37–59 complex data were indexed and integrated with DIALS [38] and further processed with CCP4 programs Rebatch, Pointless, Aimless, and cTruncate, with 5% of the reflections assigned to Rfree with Uniqueify. The complex structures were phased by molecular replacement with PHASER [40] and using a Sirt3/ac-ACS/carba-NAD (PDB ID 4FVT) and a Sirt3/ADPr complex (PDB ID 4BVB), respectively, as a search model. […]

Sirt1 = details: FdL assay, wildtype Tat; ref [9]; read-out: IC50, Sirt1 (previously reported); cited from earlier work
[3] = molecular target: T2, human full-length Sirt1 (fl-Sirt1); experiment: FdL deacetylation assay, fl-Sirt1; format: biochemical; details: FdL assay, 100 µM FdL-1, 500 µM NAD^+, pH 7.8, 37 °C; n = 2; read-out: IC50, fl-Sirt1, truncated Tat-Cys^− constructs
Excerpt: as §1, with “Purified proteins (yield 1—4 mg/L expression culture) were concentrated to 12–18 mg/mL and shock frozen for storage at −80 °C.” left out

SYGRKKRRQ [Tat-46–54] gave an IC50 ([1]; 37 °C, pH 7.8, ± s.d., read-out: IC50 (FdL assay), mini-Sirt1, non-acetylated Tat-46–54) of 131 ± 88.1 µM.

With “Tat-49–60: synthetic non-acetylated Tat fragment, residues 49–60 (RKKRRQRRRPSQ)” the “inhibition of mini-Sirt1 by synthetic Tat peptides (Figure 2F)” value ([1]; dose-dependent) was “weaker inhibition” and the “inhibition of mini-Sirt1, titration (Figure 2G)” value ([1]; titration) was “neither Tat-31–49 nor Tat-49–60 alone was sufficient for significant inhibition”.

For “ac-Tat-46–54: Lys50-acetylated Tat-46–54 peptide (SYGRK(Ac)KRRQ)”, the “effect on fl-Sirt1 activity upon addition to assay containing p53-peptide” value ([2]; 100 µM ac-p53 as basal substrate) was “expected increase of activity”, the “onset of inhibition upon addition to assay containing p53-peptide” value ([2]; fl-Sirt1, 100 µM ac-p53 as basal substrate) was “no indications of instant or delayed onset of inhibition” and the “Sirt1-dependent deacetylation (as substrate)” value (mini-Sirt1; Michaelis–Menten kinetics, mini-Sirt1, compared with ac-p53-Lys382, n = 3) was “efficient Sirt1-dependent deacetylation, even slightly more efficient than for its standard substrate peptide ac-p53-Lys382”. The “inhibitory effects at later time points of the deacetylation assay” value (mini-Sirt1; time-course for deacetylation by mini-Sirt1, n = 3) was “did not observe any inhibitory effects at later time points” and the “binding site/mode in Sirt3 crystal structure” value (human Sirt3-(118-399)) was “inserted in the substrate binding groove in the typical, β-sheet-like fashion”.

For “wildtype Tat: HIV1 transactivator of transcription protein, wildtype, as previously reported”, the IC50 (Sirt1) is given as 3.5 µM.

With “residues 21–63 of Tat-Cys^−: construct also lacking the N-terminal region from aa 1–20 (ASNRAHAKKSAYHSQVAFITKGLGISYGRKKRRQRRRPSQGGQ)” the IC50 [3] was roughly 30 µM.
